Experimental data from patent publication US20240182563A1 (GENOME, published 2024).
Substitutions are numbered along the chain they refer to. Names and notes keep the numbering of the source.

T1: human CNTN4 antigen expressed on the cell membrane of 293FT cells (human, UniProt Q8IWV2 19-1000)
T1 construct: whole, on cells; also called Human CNTN4 transfected cell
T1 sequence (looked up): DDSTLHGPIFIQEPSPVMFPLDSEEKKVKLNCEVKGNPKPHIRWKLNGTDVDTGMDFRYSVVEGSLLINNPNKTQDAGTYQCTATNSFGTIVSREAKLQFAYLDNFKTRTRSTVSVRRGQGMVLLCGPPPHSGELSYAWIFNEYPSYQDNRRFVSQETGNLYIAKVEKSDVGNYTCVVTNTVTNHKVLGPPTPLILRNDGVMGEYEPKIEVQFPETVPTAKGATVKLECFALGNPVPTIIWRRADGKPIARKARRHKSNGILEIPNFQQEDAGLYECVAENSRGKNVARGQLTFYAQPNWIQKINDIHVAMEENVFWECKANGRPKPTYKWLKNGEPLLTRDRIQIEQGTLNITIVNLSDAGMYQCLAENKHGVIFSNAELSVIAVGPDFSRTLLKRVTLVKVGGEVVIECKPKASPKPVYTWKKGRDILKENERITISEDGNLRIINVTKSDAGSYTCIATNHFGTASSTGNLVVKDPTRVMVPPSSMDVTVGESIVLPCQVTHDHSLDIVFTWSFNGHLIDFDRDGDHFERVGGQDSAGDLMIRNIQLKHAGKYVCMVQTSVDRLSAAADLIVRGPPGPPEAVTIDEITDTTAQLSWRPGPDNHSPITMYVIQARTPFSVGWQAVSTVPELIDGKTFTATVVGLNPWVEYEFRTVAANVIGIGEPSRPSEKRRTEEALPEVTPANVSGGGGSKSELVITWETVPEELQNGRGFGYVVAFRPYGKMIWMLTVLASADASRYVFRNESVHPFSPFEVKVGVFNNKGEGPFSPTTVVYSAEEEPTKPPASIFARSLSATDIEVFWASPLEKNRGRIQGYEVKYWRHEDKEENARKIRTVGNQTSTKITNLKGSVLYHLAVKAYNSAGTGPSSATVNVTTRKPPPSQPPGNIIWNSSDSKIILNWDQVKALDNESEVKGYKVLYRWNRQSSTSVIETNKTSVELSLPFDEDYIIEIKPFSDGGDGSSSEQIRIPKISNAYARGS

T2: mouse CNTN4-rabbit Fc (mouse; rabbit, UniProt Q69Z26 19-1000, limits assumed)
T2 construct: not shown: rabbit Fc
T2 sequence (looked up): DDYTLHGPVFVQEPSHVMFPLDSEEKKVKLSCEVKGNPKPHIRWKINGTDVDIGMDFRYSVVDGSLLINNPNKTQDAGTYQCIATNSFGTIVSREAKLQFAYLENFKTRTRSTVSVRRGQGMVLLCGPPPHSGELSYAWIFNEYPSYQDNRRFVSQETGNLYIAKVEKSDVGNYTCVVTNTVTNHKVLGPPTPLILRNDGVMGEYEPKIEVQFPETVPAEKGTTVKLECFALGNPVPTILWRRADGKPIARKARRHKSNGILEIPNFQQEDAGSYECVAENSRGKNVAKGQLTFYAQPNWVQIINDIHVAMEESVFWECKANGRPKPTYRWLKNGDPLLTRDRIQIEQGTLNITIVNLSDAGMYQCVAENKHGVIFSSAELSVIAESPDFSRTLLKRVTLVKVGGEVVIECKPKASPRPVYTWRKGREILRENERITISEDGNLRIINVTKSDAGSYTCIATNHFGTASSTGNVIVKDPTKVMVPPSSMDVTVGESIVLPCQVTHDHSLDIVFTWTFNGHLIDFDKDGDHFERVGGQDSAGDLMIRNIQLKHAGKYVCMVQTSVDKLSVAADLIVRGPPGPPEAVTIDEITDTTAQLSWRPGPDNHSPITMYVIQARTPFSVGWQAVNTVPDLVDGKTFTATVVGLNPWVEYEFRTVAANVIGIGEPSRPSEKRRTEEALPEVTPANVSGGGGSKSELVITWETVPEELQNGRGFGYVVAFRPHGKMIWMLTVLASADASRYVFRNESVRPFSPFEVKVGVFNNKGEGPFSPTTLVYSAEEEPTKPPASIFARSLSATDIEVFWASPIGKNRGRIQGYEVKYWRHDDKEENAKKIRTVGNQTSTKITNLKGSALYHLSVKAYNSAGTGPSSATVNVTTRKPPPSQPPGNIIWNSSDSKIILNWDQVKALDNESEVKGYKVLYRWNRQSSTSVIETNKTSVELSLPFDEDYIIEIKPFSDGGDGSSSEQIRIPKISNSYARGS

T3: human CNTN4-rabbit Fc (human; rabbit, UniProt Q8IWV2 19-1000, limits assumed)
T3 construct: not shown: rabbit Fc
T3 sequence (looked up): T1 sequence (looked up)

B1: anti-CNTN4 IgG A13SF74 (antibody, V domains shown)
VH: AVTLDESGGGLQTPGGALSLVCKASGFTLSSYAMQWVRQAPGKGLEWVAGISKGGGSTAYGAAVKGRATISRDNGQSTVRLQLNNLRAEDTATYFCAKTTDSNCCSSDSIDAWGHGTEVIVSS
VL: ALTQPSSVSANPGETVKITCSGNSSGCSWYGWFQQKSPGSALVTVIYDNTNRPSNIPSRFSGSRSGSTATLTITGVQAEDEAIYFCGIADSSGAGIFGAGTTLTVL
notes: human IgG4 (S228P)
B2: anti-CNTN4 IgG A13SF2 (antibody, V domains shown)
VH: AVTLDESGGGLQTPGGALSLICKASGFTFSSYGMAWVRQAPGKGLEWVAGITSSGSSAGYGPAVKGRATISRDNGQSTVRLQLNNLRAEDTATYYCAKDGYIYSGADSDSIDAWGHGTEVIVSS
VL: ALTQPSSVSANLGGTVKITCSGGGGSYGWYRQKSPGSAPVTLIYNNNNRPSDIPSRFSGSTSGSTGTLTITGVQADDEAVYFCGGYDSSAGYAALFGAGTTLTVL
notes: human IgG4 (S228P)
B3: anti-CNTN4 IgG A13SF20 (antibody, V domains shown)
VH: B2 VH with Q12H, I21V
VL: ALTQPSSVSANLGGTVEITCSGGSGSYGWYQQKAPGSAPVTLIYNSDKRPSDIPSRFSGSKSGSTGTLTITGVQAEDEAVYFCGGYDSSAIFGAGTTLTVL
notes: human IgG4 (S228P)
B4: anti-CNTN4 IgG A13SF19 (antibody, V domains shown)
VH: B2 VH with Q12H, I21V, P41S
VL: ALTQPSSVSANLGGTVEITCSGSSSGNYGWYQQKSPGSAPVTVIYYNDERPSDIPSRFSGSKSGSTGTLTITGVQAEDEAVYYCGGYEGSTYVGIFGAGTTLTVL
notes: human IgG4 (S228P)
B5: anti-CNTN4 IgG A35WB27 (antibody, V domains shown)
VH: B2 VH with Q12H, I21V
VL: ALTQPSSVSANLGETVKITCSGGYSGYGWYQQKSPGSAPVTVIYYNDKRPSDIPSRFSGSKSGSTGTLTITGVRAEDEAVYFCGSADSSTGYVAIFGAGTTLTVL
notes: human IgG4 (S228P)
B6: anti-CNTN4 IgG A35SF13 (antibody, V domains shown)
VH: B2 VH with Q12H, I21V
VL: ALTQPSSVSANPGETVKITCSGGGGSYGWYQQKSPGSALVTVIYNNDNRPSNIPSRLSGSKSGSTATLTITGVRAEDEAVYFCGSADNNGYIAIFGAGTTLTVL
notes: human IgG4 (S228P)
B7: anti-CNTN4 IgG A35SF39 (antibody, V domains shown)
VH: B2 VH with Q12H, I21V
VL: ALTQPSSVSANLGGTVKITCSGGSGSYGWYQQKSPGSAPVTVIYNNNNRPSDIPSRFSGSTSGSTGTLTITGVRAEDEAVYFCGGYDTDSPIFGAGTTLTVL
notes: human IgG4 (S228P)
B8: anti-CNTN4 IgG A35SF5 (antibody, V domains shown)
VH: B2 VH with Q12H, I21V
VL: ALTQPSSVSANPGETVEITCSGSSGSNYGWYQQKSPGSAPVTLIYYNDNRPSDIPSRFSGSKSGSTGTLTITGVQVEDEAVYYCGAWESSSNPDIFGAGTTLTVL
notes: human IgG4 (S228P)
B9: anti-CNTN4 IgG A13SF7 (antibody, V domains shown)
VH: B2 VH with Q12H, I21V
VL: ALTQPSSVSANLGGTVEITCSGGSGSYGWYQQKSPGSAPVTLIYDNTNRPSNIPSRFSGSTSGSTSTLTITGVQADDEAVYFCGSADTNAAYAAIFGAGTTLTVL
notes: human IgG4 (S228P)
B10: anti-CNTN4 IgG A35WB1 (antibody, V domains shown)
VH: B2 VH with Q12H, I21V
VL: ALTQPSSVSANPGETVKITCSGGSGSYGWYQQKSPGSAPVTVIYNNDQRPSNIPSRFSGSKSGSTATLTITGVQVEDEAVYFCGGWDSNSGAIFGAGTTLTVL
notes: human IgG4 (S228P)
B11: anti-CNTN4 IgG A35SF75 (antibody, V domains shown)
VH: B2 VH with Q12H, I21V
VL: ALTQPSSVSANPGVTVKITCSGGGGSYGWYQQKAPGSAPVTLIYNNTNRPSDIPSRFSGSRSGSTNTLTITGVQAEDEAVYFCGGYDSNTDYVGFGAGTTLTVL
notes: human IgG4 (S228P)
B12: anti-CNTN4 IgG A35SF90 (antibody, V domains shown)
VH: B2 VH with Q12H, I21V
VL: ALTQPSSVSANLGGTVEITCSGSNNNNYGWYQQKTPGSAPVTLIYNNNQRPSDIPSRFSGSKSGSTGTLTITGVRAEDEAVYYCGGYDSSIYFDIFGAGTTLTVL
notes: human IgG4 (S228P)
B13: anti-CNTN4 IgG A35SF37 (antibody, V domains shown)
VH: B2 VH with Q12H, I21V
VL: ALTQPSSVSANLGGTVKITCSGGSNNYGWYQQKSPGSAPVTVIYYNNKRPSDIPSRFSGSKSGSTATLTITGVQAEDEAVYFCGGYDSSSNSDVYGAGTTLTVL
notes: human IgG4 (S228P)
B14: anti-CNTN4 IgG A13SF8 (antibody, V domains shown)
VH: B2 VH with Q12H, I21V
VL: ALTQPSSVSANPGGTVKITCSGSGNYGWYQQKSPGSALVTVIYYNDKRPSDIPSRFSGSTSGSTGTLTITGVQVEDEAVYYCGGYDGYSFASIFGAGTTLTVL
notes: human IgG4 (S228P)
B15: anti-CNTN4 IgG A35SF3 (antibody, V domains shown)
VH: B2 VH with A17G, I21V
VL: B3 VL with G23S, L42V, N45D, S46N, D47T, K48N, A90T
notes: human IgG4 (S228P)

Molecular target: T1, human CNTN4 antigen expressed on the …
Test: FACS, 293FT cells transfected with human CNTN4, 40 ug/mL, anti-hFc-PE

Shift %	Binder
84.1%	B1
83.5%	B2
82.2%	B3
79.6%	B4
88.2%	B5
82.1%	B6
80%	B7
82.6%	B8
83.2%	B9
83.9%	B10
84.8%	B11
82.8%	B12
86.6%	B13
90.4%	B14
81.9%	B15

Molecular target: T2, mouse CNTN4-rabbit Fc
Test: ELISA, plate coated with antigen-rabbit Fc, anti-human IgG Fc-HRP
Procedure: (§1) An ELISA tests were performed on a total of 25 scFv-hCks and a total of 27 IgGs for which the expression was confirmed in Example 1.2. An ELISA plate was coated with 200 ng of antigens (human CNTN4-rabbit Fc or mouse CNTN4-rabbit Fc). 200 ng of a negative control (human antigen-rabbit Fc) for a tagging protein was used. For antibody binding, anti-CNTN4 scFv-hCk was serially diluted from a maximum of 1 μM to 0.001 nM by 1/10×each, and anti-CNTN4 IgG was serially diluted from a maximum of 10 nM to 0.00001 nM by 1/10×each, thereby binding to the antigen. Anti-human kappa-HRP or anti-human IgG Fc-HRP was used as the secondary antibody for antibody detection. Color was developed using ABTS, which is a color developing reagent, and the absorbance at 405 nm was measured.

EC50	Binder
0.12 nM	B1
0.01 nM	B2
0.01 nM	B3
0.01 nM	B4
0.01 nM	B5
0.02 nM	B6
0.01 nM	B7
0.01 nM	B8
0.01 nM	B9
0.01 nM	B10
0.2 nM	B11
0.01 nM	B12
0.01 nM	B13
0.01 nM	B14
0.01 nM	B15

Molecular target: T3, human CNTN4-rabbit Fc
Test: as above
Procedure: as §1

EC50	Binder
0.11 nM	B1
0.01 nM	B2
0.01 nM	B3
0.01 nM	B4
0.01 nM	B5
0.01 nM	B6
0.01 nM	B7
0.01 nM	B8
0.01 nM	B9
0.02 nM	B10
0.21 nM	B11
0.01 nM	B12
0.01 nM	B13
0.01 nM	B14
0.01 nM	B15
